According to paper PMC3973318:
Read-outs that look alike come from different tables or passages of the source.

Assays:
Experiment in all cases: EMSA
DRH-3 [1] = molecular target: T1, DRH-3 (Caenorhabditis elegans, UniProt Q93413 1-1119)
T1 sequence: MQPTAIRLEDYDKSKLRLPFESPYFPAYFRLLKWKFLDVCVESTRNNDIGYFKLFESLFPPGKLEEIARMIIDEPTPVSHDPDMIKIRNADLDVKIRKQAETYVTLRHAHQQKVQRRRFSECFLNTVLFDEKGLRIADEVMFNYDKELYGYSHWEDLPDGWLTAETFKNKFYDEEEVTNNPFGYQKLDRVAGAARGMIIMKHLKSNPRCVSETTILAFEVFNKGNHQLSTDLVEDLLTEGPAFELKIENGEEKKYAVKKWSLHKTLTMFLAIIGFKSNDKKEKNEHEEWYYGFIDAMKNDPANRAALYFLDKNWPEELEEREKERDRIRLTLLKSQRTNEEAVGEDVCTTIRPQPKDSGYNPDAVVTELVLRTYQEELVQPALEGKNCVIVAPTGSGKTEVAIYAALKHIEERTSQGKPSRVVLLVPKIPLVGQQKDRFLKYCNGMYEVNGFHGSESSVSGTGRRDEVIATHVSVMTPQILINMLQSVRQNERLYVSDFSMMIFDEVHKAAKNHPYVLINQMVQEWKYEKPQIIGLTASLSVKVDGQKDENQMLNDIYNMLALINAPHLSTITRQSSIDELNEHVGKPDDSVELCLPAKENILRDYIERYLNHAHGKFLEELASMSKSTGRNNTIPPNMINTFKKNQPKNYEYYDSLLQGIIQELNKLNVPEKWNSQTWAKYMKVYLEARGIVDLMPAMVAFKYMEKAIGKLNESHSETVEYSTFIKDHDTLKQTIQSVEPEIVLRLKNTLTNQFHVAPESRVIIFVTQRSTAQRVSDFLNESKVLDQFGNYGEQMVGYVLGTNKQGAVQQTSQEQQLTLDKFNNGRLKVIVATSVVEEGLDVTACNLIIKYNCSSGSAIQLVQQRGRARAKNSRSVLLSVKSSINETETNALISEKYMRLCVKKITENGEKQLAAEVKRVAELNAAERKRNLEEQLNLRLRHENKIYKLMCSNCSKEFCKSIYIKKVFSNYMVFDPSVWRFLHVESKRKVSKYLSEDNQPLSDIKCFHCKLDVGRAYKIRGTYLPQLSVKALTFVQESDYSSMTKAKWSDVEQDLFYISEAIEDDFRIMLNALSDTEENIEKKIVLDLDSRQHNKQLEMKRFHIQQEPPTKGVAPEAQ

DRH-3 [2] = molecular target: T1, DRH-3; remark: listed apart in the source
ΔN-DRH3 [3] = molecular target: T2, ΔN-DRH3 (Caenorhabditis elegans, UniProt Q93413 300-1119)
T2 sequence: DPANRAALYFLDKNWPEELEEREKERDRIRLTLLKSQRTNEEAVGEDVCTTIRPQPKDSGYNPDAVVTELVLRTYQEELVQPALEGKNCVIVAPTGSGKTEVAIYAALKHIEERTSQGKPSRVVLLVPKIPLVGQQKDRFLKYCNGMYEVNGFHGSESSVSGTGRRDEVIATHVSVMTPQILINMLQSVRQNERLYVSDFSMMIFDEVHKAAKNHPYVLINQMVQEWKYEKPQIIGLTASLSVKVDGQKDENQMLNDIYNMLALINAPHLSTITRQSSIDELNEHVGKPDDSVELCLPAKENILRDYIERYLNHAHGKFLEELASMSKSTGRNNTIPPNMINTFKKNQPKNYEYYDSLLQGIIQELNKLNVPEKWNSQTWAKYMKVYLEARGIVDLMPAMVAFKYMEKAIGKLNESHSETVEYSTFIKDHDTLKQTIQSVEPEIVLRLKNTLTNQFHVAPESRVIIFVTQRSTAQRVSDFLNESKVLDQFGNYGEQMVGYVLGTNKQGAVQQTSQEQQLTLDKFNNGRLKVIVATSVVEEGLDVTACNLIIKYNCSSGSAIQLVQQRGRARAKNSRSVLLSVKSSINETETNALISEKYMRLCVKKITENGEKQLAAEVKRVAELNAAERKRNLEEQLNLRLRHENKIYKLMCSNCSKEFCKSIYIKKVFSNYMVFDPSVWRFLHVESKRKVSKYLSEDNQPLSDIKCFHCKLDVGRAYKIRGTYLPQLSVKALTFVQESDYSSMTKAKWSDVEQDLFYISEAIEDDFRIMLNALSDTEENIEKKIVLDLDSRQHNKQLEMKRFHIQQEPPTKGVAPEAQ

MDA-5 = molecular target: T3, MDA-5 (human, UniProt Q9BYX4 1-1025)
T3 sequence: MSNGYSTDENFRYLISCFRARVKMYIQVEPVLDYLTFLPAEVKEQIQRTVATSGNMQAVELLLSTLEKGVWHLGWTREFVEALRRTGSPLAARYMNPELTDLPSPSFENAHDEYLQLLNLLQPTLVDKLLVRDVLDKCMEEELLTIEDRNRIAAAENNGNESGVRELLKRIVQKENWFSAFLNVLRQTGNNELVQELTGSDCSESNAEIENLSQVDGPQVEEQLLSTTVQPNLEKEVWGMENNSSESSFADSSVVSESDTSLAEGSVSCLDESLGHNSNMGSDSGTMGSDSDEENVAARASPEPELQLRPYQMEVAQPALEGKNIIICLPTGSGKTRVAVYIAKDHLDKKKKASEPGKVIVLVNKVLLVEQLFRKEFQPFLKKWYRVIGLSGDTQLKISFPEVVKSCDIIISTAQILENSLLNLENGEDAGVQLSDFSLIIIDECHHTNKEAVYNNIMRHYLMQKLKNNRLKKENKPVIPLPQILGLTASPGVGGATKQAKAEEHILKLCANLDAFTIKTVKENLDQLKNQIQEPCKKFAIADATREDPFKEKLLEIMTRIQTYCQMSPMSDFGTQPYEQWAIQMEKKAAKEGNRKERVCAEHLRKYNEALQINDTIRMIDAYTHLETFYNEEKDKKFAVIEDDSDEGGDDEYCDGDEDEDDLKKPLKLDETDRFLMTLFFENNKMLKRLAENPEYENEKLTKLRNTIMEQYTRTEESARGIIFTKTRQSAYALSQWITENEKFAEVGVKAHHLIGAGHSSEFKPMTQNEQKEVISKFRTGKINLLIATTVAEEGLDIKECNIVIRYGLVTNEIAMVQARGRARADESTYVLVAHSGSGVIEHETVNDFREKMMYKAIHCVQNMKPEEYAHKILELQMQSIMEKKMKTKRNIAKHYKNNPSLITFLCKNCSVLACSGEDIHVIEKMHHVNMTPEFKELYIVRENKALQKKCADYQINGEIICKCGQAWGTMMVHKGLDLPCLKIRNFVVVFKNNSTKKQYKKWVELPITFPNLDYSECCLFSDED

RIG-I = molecular target: T4, RIG-I (UniProt O95786 1-925)
T4 sequence: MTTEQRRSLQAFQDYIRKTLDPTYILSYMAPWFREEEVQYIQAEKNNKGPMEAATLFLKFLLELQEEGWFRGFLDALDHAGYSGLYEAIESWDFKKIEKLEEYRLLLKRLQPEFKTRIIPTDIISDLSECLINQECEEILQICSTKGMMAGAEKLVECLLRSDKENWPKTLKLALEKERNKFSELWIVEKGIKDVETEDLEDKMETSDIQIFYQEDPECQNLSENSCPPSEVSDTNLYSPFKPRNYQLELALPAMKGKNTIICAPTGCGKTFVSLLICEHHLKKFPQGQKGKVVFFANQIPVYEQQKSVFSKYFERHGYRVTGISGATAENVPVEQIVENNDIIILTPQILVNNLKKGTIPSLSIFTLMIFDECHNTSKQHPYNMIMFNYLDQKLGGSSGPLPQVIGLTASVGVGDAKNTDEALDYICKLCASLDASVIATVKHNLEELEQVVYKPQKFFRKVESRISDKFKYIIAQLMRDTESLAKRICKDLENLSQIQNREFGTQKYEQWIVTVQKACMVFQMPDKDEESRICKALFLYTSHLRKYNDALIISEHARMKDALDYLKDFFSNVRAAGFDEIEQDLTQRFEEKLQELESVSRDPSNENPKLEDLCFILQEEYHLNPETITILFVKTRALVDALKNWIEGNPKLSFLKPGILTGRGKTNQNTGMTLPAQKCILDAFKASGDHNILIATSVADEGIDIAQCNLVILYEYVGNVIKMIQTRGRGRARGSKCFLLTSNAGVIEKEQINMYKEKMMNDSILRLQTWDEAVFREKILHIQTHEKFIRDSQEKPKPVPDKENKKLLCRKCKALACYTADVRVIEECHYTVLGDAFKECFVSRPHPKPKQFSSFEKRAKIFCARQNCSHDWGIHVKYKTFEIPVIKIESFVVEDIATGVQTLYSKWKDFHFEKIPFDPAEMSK

ΔN-DRH3 [4] = molecular target: T2, ΔN-DRH3; remark: listed apart in the source
ΔN-DRH3 [5] = molecular target: T2, ΔN-DRH3; remark: listed apart in the source
DRH-3 [6] = molecular target: T1, DRH-3; remark: listed apart in the source
ΔN-DRH3 [7] = molecular target: T2, ΔN-DRH3; remark: listed apart in the source

B1: ds18 (dsRNA)
RNA 1: GGGUAUAGACUGACUAGG
RNA 2: CCUAGUCAGUCUAUACCC
Kd (DRH-3 [1]): 679 ± 135 nM

B2: ds34 (dsRNA)
RNA 1: GGAGUGCAUCUCCUUCCCUCCUUUCCUUCUGGUC
RNA 2: GACCAGAAGGAAAGGAGGGAAGGAGAUGCACUCC
Kd (DRH-3 [2]): 384 ± 19 nM

B3: ds12 (dsRNA)
RNA 1: GCCCAGACCACC
RNA 2: GGUGGUCUGGGC
Kd (ΔN-DRH3 [3]): 522 ± 67 nM | Kd (DRH-3 [1]): 839 ± 53 nM

B4: ds25 (dsRNA)
RNA 1: GGGUAUAGACUGACUAGGAUCUCCC
RNA 2: GGGAGAUCCUAGUCAGUCUAUACCC
Kd (MDA-5): 123 ± 4 nM | Kd (RIG-I): 38 ± 6 nM | Kd (DRH-3 [2]): 218 ± 7 nM | Kd (ΔN-DRH3 [4]): 376 ± 5 nM

B5: dsPPP12 (dsRNA)
RNA 1: GCCCAGACCACC
RNA 2: GGUGGUCUGGGC
modifications: 5' triphosphate on top strand
Kd (ΔN-DRH3 [5]): 174 ± 12 nM

B6: ds22 (dsRNA)
RNA 1: GGGUACAGACUGACUAGGAUCG
RNA 2: CGAUCCUAGUCAGUCUGUACCC
Kd (DRH-3 [6]): 230 ± 7 nM

B7: dsPPP25 (dsRNA)
RNA 1: GGGUAUAGACUGACUAGGAUCUCCC
RNA 2: GGGAGAUCCUAGUCAGUCUAUACCC
modifications: 5' triphosphate on top strand
Kd (ΔN-DRH3 [7]): 120 ± 6 nM
